Data published in patent US20240158510A1 (GOVERNING COUNCIL OF THE UNIVERSITY OF TORONTO, published 2024).
Residue numbers refer to the chain shown, from its start. Like-named read-outs stand apart in the source and are kept apart here.

Columns and labels:
[1] = target: T1, integrin αvβ1 expressed on CHO cells (UniProt P06756 31-1048; P05556 21-798, limits assumed); test: cell-based or functional assay
[2] = target: T2, integrin αvβ5 expressed on CHO cells (UniProt P06756 31-1048; P18084 24-799, limits assumed); test: cell-based or functional assay
[3] = target: T3, integrin αvβ8 expressed on CHO cells (UniProt P06756 31-1048; P26012 43-769, limits assumed); test: cell-based or functional assay
[4] = target: T4, integrin αvβ3 expressed on CHO cells (UniProt P06756 31-1048; P05106 27-788, limits assumed); test: cell-based or functional assay
[5] = target: T1, integrin αvβ1 expressed on CHO cells; test: flow cytometry titration on integrin-expressing CHO cells
Method: (§1) Adherent cells were brought into suspension using PBS supplemented with 10 mM ethylenediaminetetraacetic acid (EDTA). The cells were washed with PBS, resuspended in PBS supplemented with 1% BSA, and incubated for 15 minutes at 4° C. The cells were labelled with 50 μl of Fab-phage culture supernatant, or 500 nM Fab, or IgG for 30 minutes at 4° C., then washed with PBS and resuspended in PBS supplemented with 1% BSA. Next, the cells were labelled with anti-Fab (for Fab-phage), or anti-Flag (for Fabs) or anti-Fc (for IgGs) conjugated Alexa-488 secondary Ab according to manufacturer's instructions. Data were collected using a CytoFLEX-S flow-cytometer using a 488-nm laser with 530/25 nm filter settings. The cells were analyzed in PBS, and all acquired live events were greater than 10,000 cells per sample. Quantitation analysis was carried out using FlowJo v10.2 Software. For Ab cellular titration analysis, the Abs were added to antigen positive cells in duplicate samples from a range of 500 pM to 1 μM. The mean fluorescence signal values were subtracted from the control antigen negative cells signals, and EC50 determined using Graph-pad Prism, where x is the Fab concentration: […]

[6] = target: T2, integrin αvβ5 expressed on CHO cells; test: as above
Method: as §1

[7] = target: T5, integrin αvβ6 expressed on CHO cells (UniProt P06756 31-1048; P18564 22-788, limits assumed); test: as above
T5 construct: whole, on cells
Method: as §1

[8] = target: T3, integrin αvβ8 expressed on CHO cells; test: as above
Method: as §1

[9] = target: T4, integrin αvβ3 expressed on CHO cells; test: as above
Method: as §1

[10] = target: T6, recombinant human integrin-αvβ1 (human, UniProt P06756 31-992; P05556 21-728, limits assumed); test: IgG titration on recombinant human integrin αvβ1, one site-total fit; assay format not stated; parameters: Bmax: unit not given here
T6 construct: also called Recombinant Human Integrins

[11] = target: T1, integrin αvβ1 expressed on CHO cells; test: cell-based or functional assay; remark: listed apart in the source
[12] = target: T7, recombinant mouse integrin-αvβ1 (mouse, UniProt P43406 31-988; P09055 21-728, limits assumed); test: IgG titration on recombinant mouse integrin αvβ1, one site-total fit; assay format not stated
T7 construct: also called Recombinant Mouse Integrins

[13] = target: T5, integrin αvβ6 expressed on CHO cells; test: flow cytometry titration on AvB6 CHO cells
Method: as §1

[14] = target: T3, integrin αvβ8 expressed on CHO cells; test: flow cytometry titration on AvB8 CHO cells
Method: as §1

[15] = target: T1, integrin αvβ1 expressed on CHO cells; test: cell-based or functional assay; remark: listed apart in the source
[16] = target: T1, integrin αvβ1 expressed on CHO cells; test: flow cytometry titration on integrin-αvβ1 CHO cells (curves in FIG. 12K)
Method: as §1

[17] = target: T4, integrin αvβ3 expressed on CHO cells; test: flow cytometry titration on AvB3 CHO cells
Method: as §1

[18] = target: T2, integrin αvβ5 expressed on CHO cells; test: flow cytometry titration on AvB5 CHO cells
Method: as §1

[19] = target: T1, integrin αvβ1 expressed on CHO cells; test: cell-based or functional assay; remark: listed apart in the source
[20] = target: T2, integrin αvβ5 expressed on CHO cells; test: cell-based or functional assay; remark: listed apart in the source
[21] = target: T5, integrin αvβ6 expressed on CHO cells; test: cell-based or functional assay
[22] = target: T3, integrin αvβ8 expressed on CHO cells; test: cell-based or functional assay; remark: listed apart in the source
[23] = target: T4, integrin αvβ3 expressed on CHO cells; test: cell-based or functional assay; remark: listed apart in the source
[24] = target: T1, integrin αvβ1 expressed on CHO cells; test: flow cytometry titration on AvB1 CHO cells
Method: as §1

[25] = target: T1, integrin αvβ1 expressed on CHO cells; test: cell-based or functional assay; remark: listed apart in the source
[26] = target: T1, integrin αvβ1 expressed on CHO cells; test: flow cytometry titration on integrin-αvβ1 CHO cells; binder taken from the context of FIG. 10 and Example 2
Method: as §1

T1 sequence (P06756 31-1048 limits assumed, chain 1 of 2): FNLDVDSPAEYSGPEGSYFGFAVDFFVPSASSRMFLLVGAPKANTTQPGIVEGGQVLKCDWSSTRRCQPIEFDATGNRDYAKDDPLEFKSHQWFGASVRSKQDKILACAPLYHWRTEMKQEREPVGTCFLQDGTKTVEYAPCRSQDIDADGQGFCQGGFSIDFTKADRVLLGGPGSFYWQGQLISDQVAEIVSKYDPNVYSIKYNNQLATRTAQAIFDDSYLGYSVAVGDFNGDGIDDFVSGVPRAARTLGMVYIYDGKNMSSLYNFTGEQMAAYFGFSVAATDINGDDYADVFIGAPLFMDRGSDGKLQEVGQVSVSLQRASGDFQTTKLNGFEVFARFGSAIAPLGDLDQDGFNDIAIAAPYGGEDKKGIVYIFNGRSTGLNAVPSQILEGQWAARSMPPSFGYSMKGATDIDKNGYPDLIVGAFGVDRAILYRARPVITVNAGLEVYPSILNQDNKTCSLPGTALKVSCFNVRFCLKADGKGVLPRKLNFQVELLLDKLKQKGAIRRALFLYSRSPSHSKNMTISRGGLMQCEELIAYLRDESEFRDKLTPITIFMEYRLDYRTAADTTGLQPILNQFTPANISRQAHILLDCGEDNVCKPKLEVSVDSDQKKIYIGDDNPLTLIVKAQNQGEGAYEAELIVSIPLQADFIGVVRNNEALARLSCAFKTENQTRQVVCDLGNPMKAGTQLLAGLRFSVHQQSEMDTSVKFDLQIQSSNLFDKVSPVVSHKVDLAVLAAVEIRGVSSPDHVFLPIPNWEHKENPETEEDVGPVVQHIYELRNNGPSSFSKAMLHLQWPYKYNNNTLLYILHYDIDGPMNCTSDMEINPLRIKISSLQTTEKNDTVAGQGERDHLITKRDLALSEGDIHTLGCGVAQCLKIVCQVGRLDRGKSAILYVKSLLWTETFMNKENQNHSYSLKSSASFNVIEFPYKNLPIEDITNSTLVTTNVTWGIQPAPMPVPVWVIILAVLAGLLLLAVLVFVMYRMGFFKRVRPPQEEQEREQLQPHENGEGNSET
T1 sequence (P05556 21-798 limits assumed, chain 2 of 2): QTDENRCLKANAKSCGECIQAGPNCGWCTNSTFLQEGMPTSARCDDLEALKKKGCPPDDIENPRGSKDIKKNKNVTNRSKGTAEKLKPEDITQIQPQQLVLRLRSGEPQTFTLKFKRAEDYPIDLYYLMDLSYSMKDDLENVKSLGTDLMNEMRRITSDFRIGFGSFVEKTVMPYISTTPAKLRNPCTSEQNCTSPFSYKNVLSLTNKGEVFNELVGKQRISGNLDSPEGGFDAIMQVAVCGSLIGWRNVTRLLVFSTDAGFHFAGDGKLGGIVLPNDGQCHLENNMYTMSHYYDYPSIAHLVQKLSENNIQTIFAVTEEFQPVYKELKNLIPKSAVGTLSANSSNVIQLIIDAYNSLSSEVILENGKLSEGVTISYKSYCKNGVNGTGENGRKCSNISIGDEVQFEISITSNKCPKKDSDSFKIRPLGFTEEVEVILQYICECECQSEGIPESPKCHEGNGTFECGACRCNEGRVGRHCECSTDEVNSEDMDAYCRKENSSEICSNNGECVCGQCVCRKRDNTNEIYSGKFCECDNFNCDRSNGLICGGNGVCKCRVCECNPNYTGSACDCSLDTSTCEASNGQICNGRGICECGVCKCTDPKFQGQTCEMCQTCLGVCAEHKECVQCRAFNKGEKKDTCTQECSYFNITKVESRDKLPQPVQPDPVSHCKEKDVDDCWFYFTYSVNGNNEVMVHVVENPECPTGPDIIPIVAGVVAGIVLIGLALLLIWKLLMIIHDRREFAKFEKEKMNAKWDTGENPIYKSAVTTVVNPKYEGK
T3 sequence (P06756 31-1048 limits assumed, chain 1 of 2): as the sequence (P06756 31-1048 limits assumed, chain 1 of 2) above
T3 sequence (P26012 43-769 limits assumed, chain 2 of 2): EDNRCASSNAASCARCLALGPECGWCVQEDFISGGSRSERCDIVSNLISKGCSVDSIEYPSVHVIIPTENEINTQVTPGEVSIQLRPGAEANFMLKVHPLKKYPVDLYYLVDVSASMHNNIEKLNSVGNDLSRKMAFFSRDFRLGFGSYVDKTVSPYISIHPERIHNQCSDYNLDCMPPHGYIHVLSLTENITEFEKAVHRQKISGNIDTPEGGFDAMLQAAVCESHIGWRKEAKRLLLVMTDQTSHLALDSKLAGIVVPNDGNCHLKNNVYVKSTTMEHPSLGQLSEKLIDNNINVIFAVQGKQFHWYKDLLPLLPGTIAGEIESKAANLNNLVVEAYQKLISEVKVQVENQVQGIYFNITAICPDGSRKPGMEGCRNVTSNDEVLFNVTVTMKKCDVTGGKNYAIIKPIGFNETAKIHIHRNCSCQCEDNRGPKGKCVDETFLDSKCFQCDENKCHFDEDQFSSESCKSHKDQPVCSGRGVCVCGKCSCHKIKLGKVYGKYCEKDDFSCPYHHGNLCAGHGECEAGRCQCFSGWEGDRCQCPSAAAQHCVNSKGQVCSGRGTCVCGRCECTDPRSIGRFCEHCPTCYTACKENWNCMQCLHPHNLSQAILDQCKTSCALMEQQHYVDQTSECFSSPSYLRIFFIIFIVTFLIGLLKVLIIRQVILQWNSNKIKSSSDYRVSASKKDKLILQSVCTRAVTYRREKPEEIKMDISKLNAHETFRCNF
T2 sequence (P06756 31-1048 limits assumed, chain 1 of 2): as the sequence (P06756 31-1048 limits assumed, chain 1 of 2) above
T2 sequence (P18084 24-799 limits assumed, chain 2 of 2): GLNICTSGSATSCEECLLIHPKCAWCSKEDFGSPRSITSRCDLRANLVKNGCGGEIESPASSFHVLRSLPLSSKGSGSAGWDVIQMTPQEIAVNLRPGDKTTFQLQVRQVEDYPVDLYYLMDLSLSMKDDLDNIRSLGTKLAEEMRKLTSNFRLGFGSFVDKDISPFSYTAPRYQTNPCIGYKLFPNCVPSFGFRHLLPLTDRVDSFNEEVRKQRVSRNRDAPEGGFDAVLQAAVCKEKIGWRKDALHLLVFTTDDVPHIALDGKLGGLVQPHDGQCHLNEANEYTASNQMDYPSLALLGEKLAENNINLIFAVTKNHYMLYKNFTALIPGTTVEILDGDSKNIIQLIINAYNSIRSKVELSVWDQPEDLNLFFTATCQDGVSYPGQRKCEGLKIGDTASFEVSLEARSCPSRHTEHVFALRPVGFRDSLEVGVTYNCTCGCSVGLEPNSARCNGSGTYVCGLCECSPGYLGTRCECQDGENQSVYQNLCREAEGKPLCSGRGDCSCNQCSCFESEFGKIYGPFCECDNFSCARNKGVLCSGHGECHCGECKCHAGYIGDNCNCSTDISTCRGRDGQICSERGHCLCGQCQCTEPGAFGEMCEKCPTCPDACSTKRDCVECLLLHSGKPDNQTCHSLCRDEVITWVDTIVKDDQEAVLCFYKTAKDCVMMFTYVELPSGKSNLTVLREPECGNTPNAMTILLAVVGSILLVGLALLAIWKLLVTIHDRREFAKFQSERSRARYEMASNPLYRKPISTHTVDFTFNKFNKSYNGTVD
T5 sequence (P06756 31-1048 limits assumed, chain 1 of 2): as the sequence (P06756 31-1048 limits assumed, chain 1 of 2) above
T5 sequence (P18564 22-788 limits assumed, chain 2 of 2): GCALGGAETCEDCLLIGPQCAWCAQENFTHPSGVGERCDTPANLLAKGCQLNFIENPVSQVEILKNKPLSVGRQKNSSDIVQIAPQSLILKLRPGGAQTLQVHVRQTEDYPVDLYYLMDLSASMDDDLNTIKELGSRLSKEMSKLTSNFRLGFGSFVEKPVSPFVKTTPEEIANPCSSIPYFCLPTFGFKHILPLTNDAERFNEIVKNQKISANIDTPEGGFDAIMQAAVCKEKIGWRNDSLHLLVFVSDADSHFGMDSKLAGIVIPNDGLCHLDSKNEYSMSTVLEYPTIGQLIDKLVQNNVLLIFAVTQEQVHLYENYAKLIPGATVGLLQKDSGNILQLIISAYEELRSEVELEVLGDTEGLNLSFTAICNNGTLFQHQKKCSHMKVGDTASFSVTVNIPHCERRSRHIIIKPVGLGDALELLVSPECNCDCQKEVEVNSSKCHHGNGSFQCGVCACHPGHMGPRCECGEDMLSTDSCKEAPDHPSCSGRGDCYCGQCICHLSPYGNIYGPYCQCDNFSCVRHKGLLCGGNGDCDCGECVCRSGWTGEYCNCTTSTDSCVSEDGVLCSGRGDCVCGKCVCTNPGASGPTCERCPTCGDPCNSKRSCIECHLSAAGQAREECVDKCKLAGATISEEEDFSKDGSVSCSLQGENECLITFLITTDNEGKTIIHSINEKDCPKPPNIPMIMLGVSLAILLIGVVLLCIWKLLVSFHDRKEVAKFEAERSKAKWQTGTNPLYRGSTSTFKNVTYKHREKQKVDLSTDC
T4 sequence (P06756 31-1048 limits assumed, chain 1 of 2): as the sequence (P06756 31-1048 limits assumed, chain 1 of 2) above
T4 sequence (P05106 27-788 limits assumed, chain 2 of 2): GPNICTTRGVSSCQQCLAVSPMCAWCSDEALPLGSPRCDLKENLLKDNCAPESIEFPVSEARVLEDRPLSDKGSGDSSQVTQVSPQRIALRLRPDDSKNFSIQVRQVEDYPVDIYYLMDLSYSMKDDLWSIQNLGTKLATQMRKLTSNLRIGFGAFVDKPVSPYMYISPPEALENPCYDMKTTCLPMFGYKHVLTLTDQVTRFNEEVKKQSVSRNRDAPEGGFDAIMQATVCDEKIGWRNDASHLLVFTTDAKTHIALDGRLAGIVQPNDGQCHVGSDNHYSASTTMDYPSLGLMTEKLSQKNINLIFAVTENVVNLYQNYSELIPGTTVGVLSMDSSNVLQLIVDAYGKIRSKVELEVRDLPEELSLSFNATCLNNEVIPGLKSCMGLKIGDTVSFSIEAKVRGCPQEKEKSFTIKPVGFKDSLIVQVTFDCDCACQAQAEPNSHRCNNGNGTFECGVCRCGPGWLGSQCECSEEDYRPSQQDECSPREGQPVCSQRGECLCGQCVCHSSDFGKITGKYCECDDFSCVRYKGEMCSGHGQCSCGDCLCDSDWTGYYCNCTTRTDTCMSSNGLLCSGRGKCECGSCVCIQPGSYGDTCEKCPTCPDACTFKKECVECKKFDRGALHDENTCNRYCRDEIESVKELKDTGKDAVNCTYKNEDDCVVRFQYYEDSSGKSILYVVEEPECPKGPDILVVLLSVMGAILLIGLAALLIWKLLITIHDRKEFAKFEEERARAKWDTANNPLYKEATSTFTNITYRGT

B1: IgG clone 10404, hG1/hk (pSCSTa-hG1 (10404) heavy chain, pSCSTa-hK (10404) light chain) (antibody, V domains shown)
VH: EVQLVESGGGLVQPGGSLRLSCAASGFNLYSSSIHWVRQAPGKGLEWVAYIYPSYGYTSTYADSVKGRFTISADTSKNTAYLQMNSLRAEDTAVYYCARPAPYYSWYPAMDYWGQGTLVTVSS
VL: DIQMTQSPSSLSASVGDRVTITCRASQSVSSAVAWYQQKPGKAPKLLIYSASSLYSGVPSRFSGSRSGTDFTLTISSLQPEDFATYYCQQASGSPFTFGQGTKVEIKR
notes: Full-length human IgG1/kappa made in Expi293 cells
In the case of B1, the “IC50, inhibition of CHO cell adhesion to LAP-TGFβ” value [1] is reported as 13.2 nM, the “IC50, inhibition of CHO cell adhesion to LAP-TGFβ” value [2] is reported as 3.64 nM and the “IC50, inhibition of CHO cell adhesion to LAP-TGFβ” value [3] is reported as < 1 nM. For the same binder, the “IC50, inhibition of CHO cell adhesion to LAP-TGFβ” value [4] was 23.8 nM, the EC50 [5] was 2.43 nM and the EC50 [6] was 2.45 nM. It also gave an EC50 [7] of 2.96 nM, an EC50 [8] of 14.3 nM and an EC50 [9] of 13.1 nM. For the same binder, the Bmax [10] was 1.09, the Kd [10] was 0.271 nM and the “adhesion of integrin-αvβ1 CHO cells to LAP-TGFβ, normalised confluence, number over the bar, untreated = 100” value [11] was 46.2%. It also gave a Bmax [12] of 1.09.

B2: IgG 11867 (antibody, V domains shown)
VH: EVQLVESGGGLVQPGGSLRLSCAASGFDFDSYAIHWVRQAPGKGLEWVAYFYPGHDYSTYADSVKGRFTISADTSKNTAYLQMNSLRAEDTAVYYCARPSPYFSWHQAMDYWGQGTLVTVSS
VL: B1 VL with S92T, P95E, F96V
notes: also called 11867 hG1
With B2 the EC50 [13] was 1.7 nM, the EC50 [14] was 8.9 nM and the “IC50, inhibition of integrin-αvβ1 CHO cell adhesion to LAP-TGFβ (curves in FIG. 12L)” value [15] was 2.9 nM. It also gave an EC50 [16] of 2.6 nM, an EC50 [17] of 6.8 nM and an EC50 [18] of 1.2 nM. The “IC50, inhibition of CHO cell adhesion to LAP-TGFβ” value [19] was 1.6 nM, the “IC50, inhibition of CHO cell adhesion to LAP-TGFβ” value [20] was 4.1 nM and the “IC50, inhibition of CHO cell adhesion to LAP-TGFβ” value [21] was 2.1 nM. The “IC50, inhibition of CHO cell adhesion to LAP-TGFβ” value [22] was 1.3 nM, the “IC50, inhibition of CHO cell adhesion to LAP-TGFβ” value [23] was 2.4 nM and the EC50 [24] was 2.6 nM.

B3: 10404/10392 (bispecific antibody, human IgG1, kappa)
heavy chain 10392, knob: EVQLVESGGGLVQPGGSLRLSCAASGFNIYYSSIHWVRQAPGKGLEWVASISSSSGSTSYADSVKGRFTISADTSKNTAYLQMNSLRAEDTAVYYCARSYYGGGYPYALDYWGQGTLVTVSSASTKGPSVFPLAPSSKSTSGGTAALGCLVKDYFPEPVTVSWNSGALTSGVHTFPAVLQSSGLYSLSSVVTVPSSSLGTQTYICNVNHKPSNTKVDKKVEPKSCDKTHTCPPCPAPELLGGPSVFLFPPKPKDTLMISRTPEVTCVVVDVSHEDPEVKFNWYVDGVEVHNAKTKPREEQYNSTYRVVSVLTVLHQDWLNGKEYKCKVSNKALPAPIEKTISKAKGQPREPMVFDLPPSREEMTKNQVSLWCMVKGFYPSDIAVEWESNGQPENNYKTTPPVLDSDGSFFLYSKLTVDKSRWQQGNVFSCSVMHEALHNHYTQKSLSLSPGK
heavy chain 10404, hole: EVQLVESGGGLVQPGGSLRLSCAASGFNLYSSSIHWVRQAPGKGLEWVAYIYPSYGYTSTYADSVKGRFTISADTSKNTAYLQMNSLRAEDTAVYYCARPAPYYSWYPAMDYWGQGTLVTVSSASTKGPSVFPLAPSSKSTSGGTAALGCLVKDYFPEPVTVSWNSGALTSGVHTFPAVLQSSGLYSLSSVVTVPSSSLGTQTYICNVNHKPSNTKVDKKVEPKSCDKTHTCPPCPAPELLGGPSVFLFPPKPKDTLMISRTPEVTCVVVDVSHEDPEVKFNWYVDGVEVHNAKTKPREEQYNSTYRVVSVLTVLHQDWLNGKEYKCKVSNKALPAPIEKTISKAKGQPREPQVYTLPPIRELMTSNQVSLSCAVKGFYPSDIAVEWESNGQPENNYKTTPPVLDSDGSFFLVSKLTVDKSRWQQGNVFSCSVMHEALHNHYTQKSLSLSPGK
light chain 10404: DIQMTQSPSSLSASVGDRVTITCRASQSVSSAVAWYQQKPGKAPKLLIYSASSLYSGVPSRFSGSRSGTDFTLTISSLQPEDFATYYCQQASGSPFTFGQGTKVEIKRTVAAPSVFIFPPSDEQLKSGTASVVCLLNNFYPREAKVQWKVDNALQSGNSQESVTEQDSKDSTYSLSSTLTLSKADYEKHKVYACEVTHQGLSSPVTKSFNRGEC
In the case of B3, the “IC50, inhibition of integrin-αvβ1 CHO cell adhesion to LAP-TGFβ; no antibody named on the panel, binder taken from the context of FIG. 10” value [25] is reported as 2.91 nM, the EC50 [26] is reported as 2.39 nM and the “IC50, inhibition of CHO cell adhesion to LAP-TGFβ” value [1] is reported as 9.83 nM. The “IC50, inhibition of CHO cell adhesion to LAP-TGFβ” value [2] was 18.2 nM, the “IC50, inhibition of CHO cell adhesion to LAP-TGFβ” value [3] was 55.1 nM and the “IC50, inhibition of CHO cell adhesion to LAP-TGFβ” value [4] was 24.2 nM. The “adhesion of integrin-αvβ1 CHO cells to LAP-TGFβ, normalised confluence, number over the bar, untreated = 100” value [11] was 16.7%.
